{
  "source": "the supplement of paper PMC9112550",
  "about": "“Optimization of the antimicrobial peptide Bac7 by deep mutational scanning” (BMC Biology, 2022);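 further: peptides expressed intracellularly from a pBAD plasmid library in pooled LB shake-flask culture, induced with 0.3% L-arabinose, DNA abundance read by NGS, three biological replicates, DESeq2 with apeglm shrinkage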",
  "data": [
    {"test_system": "Escherichia coli TOP10", "assay": "shrunken log2 fold change of peptide-encoding DNA abundance (4.5 h post-induction vs induction); higher = less antimicrobial activity (less host growth inhibition)", "settings": "time post-induction: 4.5 h; library: site-saturation at positions 5, 18, 19, 20", "values": [
      {"sequence": "RRIRWRPPRLPRPRPRPHEMPRP", "shrunken log2 fold change": 0.433},
      {"sequence": "RRIRQRPPRLPRPRPRPGTGPRP", "shrunken log2 fold change": -0.121},
      {"sequence": "RRIRCRPPRLPRPRPRPDRIPRP", "shrunken log2 fold change": -0.0911},
      {"sequence": "RRIRSRPPRLPRPRPRPHEYPRP", "shrunken log2 fold change": 0.00184},
      {"sequence": "RRIRSRPPRLPRPRPRPCLSPRP", "shrunken log2 fold change": -0.000866},
      {"sequence": "RRIRERPPRLPRPRPRPWIEPRP", "shrunken log2 fold change": -0.206},
      {"sequence": "RRIRRRPPRLPRPRPRPTVNPRP", "shrunken log2 fold change": 0.15},
      {"sequence": "RRIRRRPPRLPRPRPRPMHPPRP", "shrunken log2 fold change": 0.552},
      {"sequence": "RRIRLRPPRLPRPRPRPRAIPRP", "shrunken log2 fold change": 0.0282},
      {"sequence": "RRIRQRPPRLPRPRPRPRGQPRP", "shrunken log2 fold change": 0.726},
      {"sequence": "RRIRNRPPRLPRPRPRPHIKPRP", "shrunken log2 fold change": -0.595},
      {"sequence": "RRIRDRPPRLPRPRPRPERAPRP", "shrunken log2 fold change": 0.0972},
      {"sequence": "RRIRVRPPRLPRPRPRPILSPRP", "shrunken log2 fold change": -0.134},
      {"sequence": "RRIRARPPRLPRPRPRPPCPPRP", "shrunken log2 fold change": 0.489},
      {"sequence": "RRIRFRPPRLPRPRPRPEMPPRP", "shrunken log2 fold change": -0.142},
      {"sequence": "RRIRERPPRLPRPRPRPHTNPRP", "shrunken log2 fold change": -0.466},
      {"sequence": "RRIRPRPPRLPRPRPRPASIPRP", "shrunken log2 fold change": -0.228},
      {"sequence": "RRIRARPPRLPRPRPRPGMRPRP", "shrunken log2 fold change": 0.545},
      {"sequence": "RRIRNRPPRLPRPRPRPRLYPRP", "shrunken log2 fold change": -0.142},
      {"sequence": "RRIRRRPPRLPRPRPRPINAPRP", "shrunken log2 fold change": 0.185},
      {"sequence": "RRIRARPPRLPRPRPRPFPLPRP", "shrunken log2 fold change": -0.0297},
      {"sequence": "RRIRPRPPRLPRPRPRPVIAPRP", "shrunken log2 fold change": 0.0792},
      {"sequence": "RRIRGRPPRLPRPRPRPNETPRP", "shrunken log2 fold change": 0.0274},
      {"sequence": "RRIRQRPPRLPRPRPRPIYQPRP", "shrunken log2 fold change": -0.647},
      {"sequence": "RRIRNRPPRLPRPRPRPVPHPRP", "shrunken log2 fold change": -0.0692},
      {"sequence": "RRIRMRPPRLPRPRPRPQIIPRP", "shrunken log2 fold change": 0.022},
      {"sequence": "RRIRARPPRLPRPRPRPNNNPRP", "shrunken log2 fold change": -0.471},
      {"sequence": "RRIRCRPPRLPRPRPRPDQNPRP", "shrunken log2 fold change": -0.138},
      {"sequence": "RRIRKRPPRLPRPRPRPKKVPRP", "shrunken log2 fold change": -0.0126},
      {"sequence": "RRIRYRPPRLPRPRPRPPRWPRP", "shrunken log2 fold change": 0.466},
      {"sequence": "RRIRFRPPRLPRPRPRPCRMPRP", "shrunken log2 fold change": -0.168},
      {"sequence": "RRIRGRPPRLPRPRPRPFSFPRP", "shrunken log2 fold change": 0.268},
      {"sequence": "RRIRFRPPRLPRPRPRPPFAPRP", "shrunken log2 fold change": 0.423},
      {"sequence": "RRIRQRPPRLPRPRPRPPTTPRP", "shrunken log2 fold change": -0.0101},
      {"sequence": "RRIRERPPRLPRPRPRPSINPRP", "shrunken log2 fold change": -0.798},
      {"sequence": "RRIRVRPPRLPRPRPRPRGLPRP", "shrunken log2 fold change": 0.307},
      {"sequence": "RRIRFRPPRLPRPRPRPSFFPRP", "shrunken log2 fold change": -0.0473},
      {"sequence": "RRIRNRPPRLPRPRPRPMIRPRP", "shrunken log2 fold change": -0.0231},
      {"sequence": "RRIRHRPPRLPRPRPRPLWFPRP", "shrunken log2 fold change": -0.00823},
      {"sequence": "RRIRVRPPRLPRPRPRPARKPRP", "shrunken log2 fold change": 0.342},
      {"sequence": "RRIRPRPPRLPRPRPRPYMLPRP", "shrunken log2 fold change": -0.781},
      {"sequence": "RRIRQRPPRLPRPRPRPHMFPRP", "shrunken log2 fold change": 0.0177},
      {"sequence": "RRIRLRPPRLPRPRPRPKRYPRP", "shrunken log2 fold change": 0.0464},
      {"sequence": "RRIRGRPPRLPRPRPRPSSVPRP", "shrunken log2 fold change": 0.282},
      {"sequence": "RRIRARPPRLPRPRPRPQVDPRP", "shrunken log2 fold change": 0.04},
      {"sequence": "RRIRQRPPRLPRPRPRPLALPRP", "shrunken log2 fold change": 0.318},
      {"sequence": "RRIRRRPPRLPRPRPRPHDSPRP", "shrunken log2 fold change": -0.0547},
      {"sequence": "RRIRARPPRLPRPRPRPICPPRP", "shrunken log2 fold change": 0.0597},
      {"sequence": "RRIRVRPPRLPRPRPRPQVNPRP", "shrunken log2 fold change": -0.795},
      {"sequence": "RRIRSRPPRLPRPRPRPWHPPRP", "shrunken log2 fold change": -0.125},
      {"sequence": "RRIRIRPPRLPRPRPRPTPPPRP", "shrunken log2 fold change": 0.464},
      {"sequence": "RRIRGRPPRLPRPRPRPWSQPRP", "shrunken log2 fold change": 0.142},
      {"sequence": "RRIRVRPPRLPRPRPRPWMMPRP", "shrunken log2 fold change": -0.0912},
      {"sequence": "RRIRFRPPRLPRPRPRPNDQPRP", "shrunken log2 fold change": -0.0705},
      {"sequence": "RRIRIRPPRLPRPRPRPRFWPRP", "shrunken log2 fold change": 0.345},
      {"sequence": "RRIRARPPRLPRPRPRPFKTPRP", "shrunken log2 fold change": 0.0511},
      {"sequence": "RRIRYRPPRLPRPRPRPWRKPRP", "shrunken log2 fold change": -0.296},
      {"sequence": "RRIRPRPPRLPRPRPRPSCTPRP", "shrunken log2 fold change": -0.221},
      {"sequence": "RRIRTRPPRLPRPRPRPKFHPRP", "shrunken log2 fold change": -0.327},
      {"sequence": "RRIRHRPPRLPRPRPRPFEHPRP", "shrunken log2 fold change": -0.0952},
      {"sequence": "RRIRGRPPRLPRPRPRPMRQPRP", "shrunken log2 fold change": 0.453},
      {"sequence": "RRIRCRPPRLPRPRPRPENPPRP", "shrunken log2 fold change": -0.0628},
      {"sequence": "RRIRIRPPRLPRPRPRPGVVPRP", "shrunken log2 fold change": -0.47},
      {"sequence": "RRIRWRPPRLPRPRPRPQEMPRP", "shrunken log2 fold change": -0.0845},
      {"sequence": "RRIRARPPRLPRPRPRPWIQPRP", "shrunken log2 fold change": -0.103},
      {"sequence": "RRIRRRPPRLPRPRPRPVLWPRP", "shrunken log2 fold change": 0.886},
      {"sequence": "RRIRNRPPRLPRPRPRPWTEPRP", "shrunken log2 fold change": -0.249},
      {"sequence": "RRIRCRPPRLPRPRPRPHWIPRP", "shrunken log2 fold change": -0.761},
      {"sequence": "RRIRFRPPRLPRPRPRPAEIPRP", "shrunken log2 fold change": -0.228},
      {"sequence": "RRIRTRPPRLPRPRPRPCPWPRP", "shrunken log2 fold change": -0.21},
      {"sequence": "RRIRKRPPRLPRPRPRPEPQPRP", "shrunken log2 fold change": 0.637},
      {"sequence": "RRIRMRPPRLPRPRPRPLHCPRP", "shrunken log2 fold change": 0.254},
      {"sequence": "RRIRERPPRLPRPRPRPYKKPRP", "shrunken log2 fold change": 0.0359},
      {"sequence": "RRIRCRPPRLPRPRPRPALEPRP", "shrunken log2 fold change": -0.00844},
      {"sequence": "RRIRPRPPRLPRPRPRPYQRPRP", "shrunken log2 fold change": 0.0369}
    ]}
  ]
}
